Test: soluble fraction after stress (log2 fold change); higher = more stays soluble; pooled small domains, quantitative proteomics
Details: stress: pH 4
Summary of the method: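 High-throughput quantitative proteomics was run on pooled custom libraries of small protein domains following pH 4 stress. Fold changes are on a log2 scale; higher values mean more of a domain remained soluble. The fold change in soluble amount is taken as a measure of aggregation propensity.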

Compared with “HMNITFAENIKQFRKAKSMSMEELGKRLGKAKSSISAWENGKRTPKINELKSISEALGVTISQLLGF”, “HMFDVNSMIAANIVAILKKQNRKQIDLAGALQTNKQTISKMLNGSRMINAIELKRIAEFLGVKMEELTKL” is higher in “soluble fraction (log2)” value: -0.293 for the first, 0.0597 for the second.

Going from “HMKMTFGENLHKLRKIYRLSQEDVASAINLKRSDIAAVEKGDRVLNDEELDKLADFIGIDIVDLL” to “HMRQYKEMPYRLFLIHLGKGLVDEVELSDKAKLTGKLKNGKIFITDNPRTENFKEQLLLHDVKVKEG”, the “soluble fraction (log2)” value rises from -0.853 to -0.133.

“HMNLLGDNIRKLRLEKGLGLNEVARLANITGGYLSSIENNKRTNVGTEILESIAKAIGVSVSDFYL” and “HMQQELEEMESGNLVRTAIDSLPINQRTAFILSAYEELPIKEIASIMNRSEGAVEQLLQRAKMNLKKKIK” are within 0.2 log units of each other in “soluble fraction (log2)” value: -0.0496 for the first, -0.0659 for the second.

Compared with “HMNSFGWESLIDKEGIADTDLHPSGWVRIDDRRIFVVSEGDFIDKGSGVTVLSVDGNRVVVRELI”, “HMEALDPLTAREQEVLEMILSGKSNREIAAELHITENTVKTHAQSIYSKYDVRGRAKLISLLLKGEA” is higher in “soluble fraction (log2)” value: -1.03 for the first, -0.192 for the second.

Going from “HMGRNSTPKEPLKKFEVSPITEKEVRILDGRFGPYITDGATNVTVPKTITIEEITFERALDMLAEKAAKGP” to “HMSPLTPEEAEVLRILGDHGDMTVDNIATEGKMSAAAVLRVLGVLSAYGLAVPSGPGRWGSRAA”, the “soluble fraction (log2)” value rises from -0.153 to 0.152.

Compared with “HMGEENLKYPLLTDGSVKTTVLEAIDKDEKWLREELAKQGYDDLSKLFLVDYLGGQLVVTPY”, “HMDAPHPSVVQVYFESRDRSWTYYNDRFDLHEGDLVYVEGKLEGVRGRVVEVSYNFRIKLADYKRVIAVA” is higher in “soluble fraction (log2)” value: -0.887 for the first, -0.122 for the second.

First: HMLSLDDAAFERYDLTMREREVLLLLLNRLTYEEIAERLFISTNTVKTHVGNVYKKTGVSSRKELVSK
Second: HMIQYRKILELHFKDISQRTISTSVGSSRNTVSDVIKRSEQLGLERLTDNMNNRWLEEFLFPEKQ
The “soluble fraction (log2)” value of the first is lower: -0.953 for the first, -0.177 for the second.

First: HMNLNLDITTYKLEELENLLKLKPNYKQEQIFEAKTKMEKFILKSNLNESKREELYIFLDNIYNKLTNNLL
Second: HMGTLRPKGTVVFANLPIAADAKEGDMYNISDQFTTTASFKEGAGNVIPAGSNVYRTDDGFWDVL
The “soluble fraction (log2)” value of the first is lower: -1.34 for the first, 0.193 for the second.

Going from “HMDYLSEFITDKVVRADGYSIRKGELSNEFKQWFITNVGTKNPKPKEIHDYMDRKFGKNKNGIWKNVKIKL” to “HMSAIKSVTTQLDNTKLRTGPDVSYQYTQSYPANTKLTYINKSGTWYQVKDADGNTGYVASWVVTPSE”, the “soluble fraction (log2)” value rises from -0.0984 to 0.387.

First: HMAIQGVRLYERTLETGDPWLDRPLSTLSTGTRLIILVRRGGDVLIPKGDTVLLAGDTLVINDS
Second: HMDNLSQMQERILEFIIRSKDQSGYTPSLREIGDEVGLKAVSSVKYQLEQLKDAHYISFDANTARAIRVLI
The “soluble fraction (log2)” value of the first is lower: -1.94 for the first, -0.438 for the second.

Going from “HMGEVVRAPMPGNVLKMEVAQGQEVEEGDLLLVLEAMKMENDIVAPKGGIVIQLVVDKGMVVETDDPLVVI” to “HMNKYYQQLLQADPTGFIDPFKDLGTYDSRLNTFKEPVSELLNPFSGRPYSKIWQKRIETMREIFISYIKS”, the “soluble fraction (log2)” value rises from -0.509 to -0.213.

Compared with “HMLNEWIDYIDEHIKEELTAKNLATVFGYSERHFRNVFQIYYDIKLNDYIRRRKLYFAAQELKKG”, “HMKNTVGEYRKLKSTTILYSNSDLTGTKYTYLPNTTVKILKNISSTVDYVYIKATNRYAYINIYAYT” is higher in “soluble fraction (log2)” value: -1.76 for the first, 0.326 for the second.

First: HMYDEKTLRKAVLDYVRDNDDGRLDLMKIDSYLTSRYGNIDYAALGYNRLSMFISSFPELRRNSNYVTLRK
Second: HMSPPPRPSHPEAAGLRHLAFEVDNIDDAVRHLDRLGVPHEPVRTDEYTGRRFLFFTDPDRLPLELYEK
The “soluble fraction (log2)” value of the first is higher: -0.158 for the first, -0.572 for the second.

First: HMWQVVEVDYGTFMSMTEDGQVGRVEIQEQENLILFTDQEETTVYKTAMVDDPDLTARLHDAGIPFYGQE
Second: HMGGWEEGVYVVREGDTLSDIVHDAVKGTEIHPDFILNAIVRVNPSAFVRGNPSWMLAGKKIK
The “soluble fraction (log2)” value of the first is lower: -2.29 for the first, -0.373 for the second.

First: HMGLDPVFKKWVDDNPWYTENRVLRALTHDYAEELKQTNPQLVGVEFLDQVKKRVQADHPEFFQ
Second: HMGTFIATVEANSLDIYKSMSSNETIGKANKGEVFQILEDMGSGYARVSYNDVEGYLSIRDGDATIEE
The “soluble fraction (log2)” value of the first is higher: -0.552 for the first, -1.54 for the second.

Going from “HMLKLEEIQPNATVRGILPDALITVVNVKWFGSEALELTYKDTSGRVANQLLFRDDQPRLEIVE” to “HMGPEQLIGKTGIAASELAPRGEVKIEGQIWRAETVGDHVKQGEPVEVVSREGLILRVKPKHPQTRG”, the “soluble fraction (log2)” value rises from -1.12 to -0.0209.

Going from “HMDRKARRKYIEQVVNDRKIETQEELLKLLTEAGFETTQATISRDIHALNIVKANDGDGHTHYVQLH” to “HMNVNFVQANLANLPNIQAIYQKGNEMLNDMKRGEAREIDEAYSRVDNGVGTEKDFKVLLSFRDKIIAAMQ”, the “soluble fraction (log2)” value rises from 0.0264 to no less than 0.43.

Compared with “HMYAGTVTQVKNNKVMLEFDGETVNVGDQFFILNSDGKKVAIVEITAAKNKKALANVLKGKAVVDGTTQAK”, “HMSEQYEQIQLALKTLTQDEQDIVRLVVVEGASLRTAGKNLGVSAMTIQRRLKRALARLRDLLAS” is lower in “soluble fraction (log2)” value: -0.404 for the first, -0.858 for the second.

Compared with “HMERYSVQVGSFRNMRYAERLKQELQGEDFPAYIEKSGEFNRVRVGKGLTLEEATQLEQVLRKSGYQTVIV”, “HMRGVNEISYTTLISEVSGGNVRDVVISGDEITGTFNDGSRFHSFSPDDPQFIERLNDQGVIINVKPL” is lower in “soluble fraction (log2)” value: 0.0226 for the first, -0.904 for the second.
